We go through 3 molecules from PMC4017629 (Journal of molecular biology, 2014).

Values joined by “and” are separate entries in the source; they are usually repeats but may differ in a detail not shown here. Identical values can stand only once.

Series [1] concerns the target T1, N-terminal DNA-binding domain of AbrB (AbrBN), residues 1-53 (B. subtilis).
T1 sequence (P08874 whole entry, looked up): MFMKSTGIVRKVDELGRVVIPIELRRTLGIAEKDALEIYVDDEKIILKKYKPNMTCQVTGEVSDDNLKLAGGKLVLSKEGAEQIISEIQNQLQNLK
The experiment in a line: AUC.

The target is the same in series [2]. The experiment in a line: SEC. (In general: SEC sorts molecules by how far they enter the pores of the column.)
The target in series [3] is C-terminal multimerization domain of AbrB (AbrBC), residues 54-94 (B. subtilis). The experiment in a line: SEC.
Series [4] deals with the molecule itself. Kind of series: SEC.
The target in series [5] is T2, Full-length AbrB from B. subtilis (B. subtilis, UniProt P08874 1-96).
T2 sequence (looked up): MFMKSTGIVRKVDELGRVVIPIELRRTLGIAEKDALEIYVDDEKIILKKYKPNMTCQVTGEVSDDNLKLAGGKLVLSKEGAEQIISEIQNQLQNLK
The experiment in a line: ITC. On the technique in general: Isothermal titration calorimetry measures the heat released or taken up as one component is titrated into another.

In the case of “N-terminal DNA-binding domain of AbrB (AbrBN), residues 1-53 (domain or fragment)”, the stoichiometry N in series [1] and in series [2] was 2 in each case.
“C-terminal multimerization domain of AbrB (AbrBC), residues 54-94 (domain or fragment)” yielded a stoichiometry N in series [3] of 2.

B1: AbbA (anti-repressor protein AbbA from B. subtilis), histidine tag removed (natural protein, UniProt O31697 1-65, looked up)
chain: MRMSLIGERFTEEEQKLLLNILINHEYAIELLSSEINDIETGTKNVDGTTYKKLVTLYDRFRFEN
As for B1, in series [4], the “stoichiometry N” value is 2. In series [1], this molecule returned a stoichiometry N (AbbA chains per AbrBN chain (2:2)) of 1. For the same molecule, in series [5], the Kd is 16 nM and 11 to 21 nM; the “stoichiometry N” value is 0.868 to 0.969 (2×) and 0.918.

By stoichiometry N is commonly meant a count of units in the complex or per binding partner. One may read the Kd as the equilibrium constant for the complex coming apart.
